Values quoted from earlier work, collected in publication PMC4865444.

Tests used:
[1] = target: Nef SF2 (Human immunodeficiency virus 1) (UniProt P03407)
[2] = target: Nef NL4-3 (Human immunodeficiency virus 1) (UniProt P04324)

UniProt P03407, sequence (P03407 2-210): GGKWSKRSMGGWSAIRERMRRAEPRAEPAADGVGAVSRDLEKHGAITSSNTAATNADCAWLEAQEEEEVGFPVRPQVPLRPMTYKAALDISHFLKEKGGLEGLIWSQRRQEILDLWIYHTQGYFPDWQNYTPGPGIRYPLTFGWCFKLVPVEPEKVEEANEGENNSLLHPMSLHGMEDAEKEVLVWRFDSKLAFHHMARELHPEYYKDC

In the case of Hck SH3 (from UniProt P08631), the Kd [1] is given as 640 nM and the Kd [2] is given as 1400 nM.
